From the supplement of paper PMC9112550, “Optimization of the antimicrobial peptide Bac7 by deep mutational scanning” (BMC Biology, 2022)

Test system: Escherichia coli TOP10
Assay: shrunken log2 fold change of peptide-encoding DNA abundance (4.5 h post-induction vs induction); higher = less antimicrobial activity (less host growth inhibition)
Conditions: time post-induction: 4.5 h; library: site-saturation at positions 5, 18, 19, 20
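Further: peptides expressed intracellularly from a pBAD plasmid library in pooled LB shake-flask culture, induced with 0.3% L-arabinose, DNA abundance read by NGS, three biological replicates, DESeq2 with apeglm shrinkage.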

## RRIRSRPPRLPRPRPRPMWWPRP
  shrunken log2 fold change: 0.551

## RRIRRRPPRLPRPRPRPHVHPRP
  shrunken log2 fold change: 0.0274

## RRIRDRPPRLPRPRPRPNNHPRP
  shrunken log2 fold change: -0.543

## RRIRYRPPRLPRPRPRPKDVPRP
  shrunken log2 fold change: -0.0107

## RRIRFRPPRLPRPRPRPYDFPRP
  shrunken log2 fold change: -0.0848

## RRIRERPPRLPRPRPRPRMIPRP
  shrunken log2 fold change: -0.0503

## RRIRKRPPRLPRPRPRPRERPRP
  shrunken log2 fold change: 0.358

## RRIRQRPPRLPRPRPRPPWHPRP
  shrunken log2 fold change: 0.187

## RRIRARPPRLPRPRPRPMCVPRP
  shrunken log2 fold change: 0.188

## RRIRMRPPRLPRPRPRPGGRPRP
  shrunken log2 fold change: 1.04

## RRIRIRPPRLPRPRPRPWGYPRP
  shrunken log2 fold change: -0.156

## RRIRFRPPRLPRPRPRPWVMPRP
  shrunken log2 fold change: -0.258

## RRIRVRPPRLPRPRPRPLADPRP
  shrunken log2 fold change: 0.279

## RRIRMRPPRLPRPRPRPSIPPRP
  shrunken log2 fold change: -0.316

## RRIRWRPPRLPRPRPRPEKNPRP
  shrunken log2 fold change: 0.686

## RRIRVRPPRLPRPRPRPTIEPRP
  shrunken log2 fold change: 0.061

## RRIRCRPPRLPRPRPRPYQAPRP
  shrunken log2 fold change: -1.11

## RRIRPRPPRLPRPRPRPSFIPRP
  shrunken log2 fold change: -0.601

## RRIRTRPPRLPRPRPRPPYRPRP
  shrunken log2 fold change: -0.187

## RRIRMRPPRLPRPRPRPWYKPRP
  shrunken log2 fold change: 0.00884

## RRIRMRPPRLPRPRPRPVWHPRP
  shrunken log2 fold change: 0.137

## RRIRCRPPRLPRPRPRPHKMPRP
  shrunken log2 fold change: -0.593

## RRIRKRPPRLPRPRPRPVIDPRP
  shrunken log2 fold change: 1.29

## RRIRVRPPRLPRPRPRPYYHPRP
  shrunken log2 fold change: -0.877

## RRIRNRPPRLPRPRPRPMWAPRP
  shrunken log2 fold change: -0.0203

## RRIRLRPPRLPRPRPRPWDMPRP
  shrunken log2 fold change: -0.235

## RRIRKRPPRLPRPRPRPADNPRP
  shrunken log2 fold change: 0.0284

## RRIRLRPPRLPRPRPRPNMMPRP
  shrunken log2 fold change: -0.762

## RRIRGRPPRLPRPRPRPPQHPRP
  shrunken log2 fold change: 0.789

## RRIRYRPPRLPRPRPRPSMCPRP
  shrunken log2 fold change: -0.24

## RRIRCRPPRLPRPRPRPKVWPRP
  shrunken log2 fold change: 0.261

## RRIRGRPPRLPRPRPRPNNLPRP
  shrunken log2 fold change: -0.349

## RRIRPRPPRLPRPRPRPSWTPRP
  shrunken log2 fold change: -0.326

## RRIRRRPPRLPRPRPRPYEKPRP
  shrunken log2 fold change: 0.0137

## RRIRVRPPRLPRPRPRPTENPRP
  shrunken log2 fold change: 0.00381

## RRIRLRPPRLPRPRPRPSMKPRP
  shrunken log2 fold change: -0.252

## RRIRYRPPRLPRPRPRPLGAPRP
  shrunken log2 fold change: -0.103

## RRIRARPPRLPRPRPRPVNRPRP
  shrunken log2 fold change: 0.277

## RRIRGRPPRLPRPRPRPAQRPRP
  shrunken log2 fold change: 0.858

## RRIRWRPPRLPRPRPRPSVHPRP
  shrunken log2 fold change: -0.136

## RRIRQRPPRLPRPRPRPYTGPRP
  shrunken log2 fold change: -0.0162

## RRIRMRPPRLPRPRPRPVVVPRP
  shrunken log2 fold change: -0.0177

## RRIRMRPPRLPRPRPRPGSQPRP
  shrunken log2 fold change: 0.926

## RRIRPRPPRLPRPRPRPLDLPRP
  shrunken log2 fold change: -0.102

## RRIRTRPPRLPRPRPRPRLAPRP
  shrunken log2 fold change: 0.453

## RRIRLRPPRLPRPRPRPEKTPRP
  shrunken log2 fold change: -0.00142

## RRIRVRPPRLPRPRPRPYHYPRP
  shrunken log2 fold change: -1.93

## RRIRPRPPRLPRPRPRPAWNPRP
  shrunken log2 fold change: 0.396

## RRIRGRPPRLPRPRPRPACTPRP
  shrunken log2 fold change: 1.17

## RRIRHRPPRLPRPRPRPQSYPRP
  shrunken log2 fold change: -0.175

## RRIRERPPRLPRPRPRPKSCPRP
  shrunken log2 fold change: -0.00876

## RRIRLRPPRLPRPRPRPANGPRP
  shrunken log2 fold change: 0.115

## RRIRFRPPRLPRPRPRPKMMPRP
  shrunken log2 fold change: -0.147

## RRIRLRPPRLPRPRPRPCAKPRP
  shrunken log2 fold change: 0.132

## RRIRVRPPRLPRPRPRPYRWPRP
  shrunken log2 fold change: -0.355

## RRIRNRPPRLPRPRPRPFSSPRP
  shrunken log2 fold change: -0.0316

## RRIRLRPPRLPRPRPRPLVCPRP
  shrunken log2 fold change: -0.0954

## RRIRMRPPRLPRPRPRPWRFPRP
  shrunken log2 fold change: 0.0528

## RRIRKRPPRLPRPRPRPLRMPRP
  shrunken log2 fold change: 0.236

## RRIRVRPPRLPRPRPRPLSMPRP
  shrunken log2 fold change: -0.0717

## RRIRNRPPRLPRPRPRPMPHPRP
  shrunken log2 fold change: -0.626

## RRIRRRPPRLPRPRPRPWMGPRP
  shrunken log2 fold change: -0.127

## RRIRERPPRLPRPRPRPTQMPRP
  shrunken log2 fold change: -0.155

## RRIRLRPPRLPRPRPRPNNAPRP
  shrunken log2 fold change: -0.221

## RRIRMRPPRLPRPRPRPKLYPRP
  shrunken log2 fold change: 0.256

## RRIRTRPPRLPRPRPRPNSSPRP
  shrunken log2 fold change: -0.13

## RRIRFRPPRLPRPRPRPNTMPRP
  shrunken log2 fold change: -0.648

## RRIRARPPRLPRPRPRPDVNPRP
  shrunken log2 fold change: 0.0462

## RRIRWRPPRLPRPRPRPCIKPRP
  shrunken log2 fold change: 0.0427

## RRIRWRPPRLPRPRPRPFVKPRP
  shrunken log2 fold change: -0.753

## RRIRNRPPRLPRPRPRPGCPPRP
  shrunken log2 fold change: -0.055

## RRIRQRPPRLPRPRPRPLHTPRP
  shrunken log2 fold change: 0.0932

## RRIRGRPPRLPRPRPRPPFEPRP
  shrunken log2 fold change: 0.691

## RRIRIRPPRLPRPRPRPTLDPRP
  shrunken log2 fold change: 1.36

## RRIRHRPPRLPRPRPRPMYLPRP
  shrunken log2 fold change: -0.412

## RRIRWRPPRLPRPRPRPTVCPRP
  shrunken log2 fold change: 0.00145

## RRIRVRPPRLPRPRPRPAFLPRP
  shrunken log2 fold change: 0.0548

## RRIRDRPPRLPRPRPRPSVMPRP
  shrunken log2 fold change: 0.198

## RRIRLRPPRLPRPRPRPPIMPRP
  shrunken log2 fold change: -0.239

## RRIRSRPPRLPRPRPRPDNYPRP
  shrunken log2 fold change: -0.303

## RRIRWRPPRLPRPRPRPVPLPRP
  shrunken log2 fold change: 0.00691

## RRIRGRPPRLPRPRPRPFNQPRP
  shrunken log2 fold change: -0.28

## RRIRRRPPRLPRPRPRPHCHPRP
  shrunken log2 fold change: -0.134

## RRIRLRPPRLPRPRPRPYSLPRP
  shrunken log2 fold change: -0.0459

## RRIRIRPPRLPRPRPRPAWKPRP
  shrunken log2 fold change: 0.123

## RRIRSRPPRLPRPRPRPGECPRP
  shrunken log2 fold change: -0.181

## RRIRIRPPRLPRPRPRPKAKPRP
  shrunken log2 fold change: 0.329

## RRIRLRPPRLPRPRPRPYGTPRP
  shrunken log2 fold change: -0.68

## RRIRYRPPRLPRPRPRPWFIPRP
  shrunken log2 fold change: -0.054

## RRIRHRPPRLPRPRPRPMRYPRP
  shrunken log2 fold change: -0.0889

## RRIRIRPPRLPRPRPRPIWAPRP
  shrunken log2 fold change: -0.234

## RRIRHRPPRLPRPRPRPNKAPRP
  shrunken log2 fold change: 0.147

## RRIRRRPPRLPRPRPRPLPMPRP
  shrunken log2 fold change: 0.541

## RRIRFRPPRLPRPRPRPETNPRP
  shrunken log2 fold change: 0.127

## RRIRTRPPRLPRPRPRPYDHPRP
  shrunken log2 fold change: -0.097

## RRIRLRPPRLPRPRPRPNVYPRP
  shrunken log2 fold change: -0.186

## RRIRKRPPRLPRPRPRPVWMPRP
  shrunken log2 fold change: 0.136

## RRIRHRPPRLPRPRPRPEETPRP
  shrunken log2 fold change: -0.00605

## RRIRGRPPRLPRPRPRPKWFPRP
  shrunken log2 fold change: 0.0384

## RRIRDRPPRLPRPRPRPIRSPRP
  shrunken log2 fold change: -0.00822

## RRIRYRPPRLPRPRPRPDRRPRP
  shrunken log2 fold change: -0.177

## RRIRYRPPRLPRPRPRPTSYPRP
  shrunken log2 fold change: -0.0849

## RRIRIRPPRLPRPRPRPFHSPRP
  shrunken log2 fold change: -0.16

## RRIRFRPPRLPRPRPRPYWDPRP
  shrunken log2 fold change: -2.48

## RRIRSRPPRLPRPRPRPKRTPRP
  shrunken log2 fold change: 0.312

## RRIRERPPRLPRPRPRPDNIPRP
  shrunken log2 fold change: -0.745

## RRIRWRPPRLPRPRPRPLTYPRP
  shrunken log2 fold change: -0.423

## RRIRARPPRLPRPRPRPFLDPRP
  shrunken log2 fold change: 0.116

## RRIRIRPPRLPRPRPRPYRNPRP
  shrunken log2 fold change: -0.0378

## RRIRRRPPRLPRPRPRPKGPPRP
  shrunken log2 fold change: 0.465

## RRIRHRPPRLPRPRPRPLMRPRP
  shrunken log2 fold change: 0.221

## RRIRWRPPRLPRPRPRPAWDPRP
  shrunken log2 fold change: 1.05

## RRIRIRPPRLPRPRPRPPQGPRP
  shrunken log2 fold change: 0.123

## RRIRFRPPRLPRPRPRPNTRPRP
  shrunken log2 fold change: -0.39

## RRIRHRPPRLPRPRPRPSIKPRP
  shrunken log2 fold change: -0.501

## RRIRARPPRLPRPRPRPCNYPRP
  shrunken log2 fold change: -0.178

## RRIRVRPPRLPRPRPRPFYKPRP
  shrunken log2 fold change: -0.502

## RRIRERPPRLPRPRPRPTYSPRP
  shrunken log2 fold change: -0.578

## RRIRRRPPRLPRPRPRPKVIPRP
  shrunken log2 fold change: -0.256

## RRIRQRPPRLPRPRPRPCKTPRP
  shrunken log2 fold change: -0.01

## RRIRPRPPRLPRPRPRPYKKPRP
  shrunken log2 fold change: -0.574

## RRIRQRPPRLPRPRPRPTPAPRP
  shrunken log2 fold change: 0.953

## RRIRPRPPRLPRPRPRPFWFPRP
  shrunken log2 fold change: -0.0717

## RRIRWRPPRLPRPRPRPGMNPRP
  shrunken log2 fold change: -0.0747

## RRIRHRPPRLPRPRPRPRFTPRP
  shrunken log2 fold change: 0.007

## RRIRARPPRLPRPRPRPAGKPRP
  shrunken log2 fold change: 0.164

## RRIRERPPRLPRPRPRPTWIPRP
  shrunken log2 fold change: -0.268

## RRIRTRPPRLPRPRPRPVMTPRP
  shrunken log2 fold change: -0.14

## RRIRMRPPRLPRPRPRPTREPRP
  shrunken log2 fold change: 0.947

## RRIRIRPPRLPRPRPRPPSKPRP
  shrunken log2 fold change: 0.147

## RRIRERPPRLPRPRPRPYDVPRP
  shrunken log2 fold change: -0.000921

## RRIRNRPPRLPRPRPRPVLRPRP
  shrunken log2 fold change: 0.00524

## RRIRNRPPRLPRPRPRPSFVPRP
  shrunken log2 fold change: -0.266

## RRIRMRPPRLPRPRPRPETPPRP
  shrunken log2 fold change: 3.09

## RRIRQRPPRLPRPRPRPVWKPRP
  shrunken log2 fold change: 0.121

## RRIRHRPPRLPRPRPRPPVVPRP
  shrunken log2 fold change: 0.253

## RRIRKRPPRLPRPRPRPMDCPRP
  shrunken log2 fold change: 0.0101

## RRIRTRPPRLPRPRPRPSRPPRP
  shrunken log2 fold change: 0.202

## RRIRPRPPRLPRPRPRPCPDPRP
  shrunken log2 fold change: 0.0391

## RRIRCRPPRLPRPRPRPCDSPRP
  shrunken log2 fold change: -0.042

## RRIRCRPPRLPRPRPRPNMLPRP
  shrunken log2 fold change: -0.398

## RRIRQRPPRLPRPRPRPMPHPRP
  shrunken log2 fold change: -0.0205

## RRIRTRPPRLPRPRPRPHLSPRP
  shrunken log2 fold change: -0.0793

## RRIRFRPPRLPRPRPRPKCMPRP
  shrunken log2 fold change: -0.967

## RRIRARPPRLPRPRPRPYISPRP
  shrunken log2 fold change: -0.132

## RRIRDRPPRLPRPRPRPEHMPRP
  shrunken log2 fold change: 0.05

## RRIRPRPPRLPRPRPRPHEYPRP
  shrunken log2 fold change: -0.25

## RRIRCRPPRLPRPRPRPCWNPRP
  shrunken log2 fold change: -0.49

## RRIRVRPPRLPRPRPRPKQPPRP
  shrunken log2 fold change: 0.11

## RRIRQRPPRLPRPRPRPEAVPRP
  shrunken log2 fold change: 0.217
